{"source": "paper doi:10.1101/2020.03.06.980961", "binders": {"B1": {"name": "LSP duplex (dsDNA)", "DNA 1": "TACCGCCAAAAG", "DNA 2": "CTTTTGGCGGTA"}}, "experiment_in_all_cases": "fluorescence anisotropy", "key": {"[1]": {"target": "T1, TFB2M-WT (human, UniProt Q9H5Q4 20-396)", "T1 sequence": "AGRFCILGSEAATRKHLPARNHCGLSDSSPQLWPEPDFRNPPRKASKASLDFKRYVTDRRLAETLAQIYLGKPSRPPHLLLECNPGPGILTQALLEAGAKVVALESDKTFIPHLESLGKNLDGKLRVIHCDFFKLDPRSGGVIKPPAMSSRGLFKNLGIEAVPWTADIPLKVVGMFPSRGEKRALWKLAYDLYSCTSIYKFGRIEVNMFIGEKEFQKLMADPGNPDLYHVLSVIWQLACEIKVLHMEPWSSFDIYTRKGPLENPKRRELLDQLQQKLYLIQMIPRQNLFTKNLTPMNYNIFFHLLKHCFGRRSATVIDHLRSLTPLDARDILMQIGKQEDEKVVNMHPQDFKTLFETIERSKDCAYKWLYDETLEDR"}, "[2]": {"target": "T2, TFB2M-Δ3 (human, UniProt Q9H5Q4 20-393)", "T2 sequence": "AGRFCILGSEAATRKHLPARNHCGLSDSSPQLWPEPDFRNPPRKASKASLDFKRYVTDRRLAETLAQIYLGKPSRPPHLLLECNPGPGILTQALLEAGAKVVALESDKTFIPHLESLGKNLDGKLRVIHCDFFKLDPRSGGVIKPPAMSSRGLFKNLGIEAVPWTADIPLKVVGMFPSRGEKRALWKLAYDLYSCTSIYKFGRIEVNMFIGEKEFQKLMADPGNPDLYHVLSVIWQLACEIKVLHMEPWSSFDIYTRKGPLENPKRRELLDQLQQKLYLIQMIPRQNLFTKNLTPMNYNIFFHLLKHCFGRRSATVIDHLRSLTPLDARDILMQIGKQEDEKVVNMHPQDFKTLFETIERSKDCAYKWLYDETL"}, "[3]": {"target": "T3, TFB2M-Δ13 (human, UniProt Q9H5Q4 20-383)", "T3 sequence": "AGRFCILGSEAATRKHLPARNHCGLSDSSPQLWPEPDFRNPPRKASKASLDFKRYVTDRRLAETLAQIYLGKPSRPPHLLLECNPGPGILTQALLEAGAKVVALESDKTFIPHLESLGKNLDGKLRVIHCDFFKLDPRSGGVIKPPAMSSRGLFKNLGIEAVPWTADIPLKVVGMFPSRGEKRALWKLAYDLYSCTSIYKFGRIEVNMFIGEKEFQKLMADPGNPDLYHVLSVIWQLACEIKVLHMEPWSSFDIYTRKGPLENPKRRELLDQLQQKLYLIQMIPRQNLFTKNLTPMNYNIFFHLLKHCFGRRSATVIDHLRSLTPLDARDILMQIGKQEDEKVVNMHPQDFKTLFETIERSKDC"}, "[4]": {"target": "T1, TFB2M-WT", "remark": "listed apart in the source"}, "[5]": {"target": "T1, TFB2M-WT", "remark": "listed apart in the source"}, "[6]": {"target": "T1, TFB2M-WT", "remark": "listed apart in the source"}, "[7]": {"target": "T4, Mtf1-Δ20 (Saccharomyces cerevisiae, UniProt P14908 1-321)", "T4 sequence": "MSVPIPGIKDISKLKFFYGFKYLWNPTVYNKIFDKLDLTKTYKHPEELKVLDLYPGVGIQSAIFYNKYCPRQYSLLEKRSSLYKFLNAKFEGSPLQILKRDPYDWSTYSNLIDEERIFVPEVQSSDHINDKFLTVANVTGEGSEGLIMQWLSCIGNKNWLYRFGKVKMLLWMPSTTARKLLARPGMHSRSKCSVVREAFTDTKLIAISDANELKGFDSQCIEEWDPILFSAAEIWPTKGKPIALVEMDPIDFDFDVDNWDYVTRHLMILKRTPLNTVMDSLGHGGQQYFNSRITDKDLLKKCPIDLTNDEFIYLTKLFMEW"}, "[8]": {"target": "T4, Mtf1-Δ20", "remark": "listed apart in the source"}}, "note": "Like-named read-outs stand apart in the source and are kept apart here."}
{"binder": "TTTTTTTTTTTT (ssDNA)", "note": "[dT12]", "values": [{"measurement": "binding result", "setting": "[1]", "value": "binds"}]}
{"binder": "TACCGCCAAAAG (ssDNA)", "note": "[LSP NT]", "values": [{"measurement": "Kd", "setting": "[2]", "value": "92 ± 3.3", "unit": "nM"}, {"measurement": "Kd", "setting": "[3]", "value": "46 ± 5.2", "unit": "nM"}, {"measurement": "Kd", "setting": "[4]", "value": "169 ± 18", "unit": "nM"}]}
{"binder": "B1", "values": [{"measurement": "binding signal", "setting": "[5]", "value": "~3 fold higher affinity than LSP NT"}]}
{"binder": "ATATAAGTAATA (ssDNA)", "note": "[15S NT]", "values": [{"measurement": "Kd", "setting": "[6]", "value": 130, "unit": "nM"}, {"measurement": "Kd", "setting": "[7]", "value": "~870", "unit": "nM"}, {"measurement": "Kd", "setting": "[8]", "value": "51 ± 2.8", "unit": "nM"}]}
